Results reported in patent US20250327081, “TDP-43-BINDING SINGLE-STRANDED APTAMERS AND USES THEREOF” (FONDAZIONE ISTITUTO ITALIANO DI TECNOLOGIA, published 2025).

B1: Apt-5 (ssRNA)
RNA: CGAGGCCGGG
B2: Apt-14 (DNA version of Apt-1) (ssDNA)
DNA: CGGTGTTGCT
B3: Apt-3 (ssRNA)
RNA: CGCUGUGGUC
B4: Apt-1 (25 nt) (ssRNA)
RNA: GCUGGGGUGGGGCGGAUCGGUGUUG
B5: Apt-6 (ssRNA)
RNA: GCGGGGCCCG
B6: Apt-2 (ssRNA)
RNA: GUGGUCCCCG
B7: Apt-4 (ssRNA)
RNA: GGGGUGGGGC
B8: Apt-1 (ssRNA)
RNA: CGGUGUUGCU

Tests used:
[1] = target: T1, TDP-43 construct (RRM1-2) (UniProt Q13148 Q13148:104-262); assay: BLI; 10 mM K phosphate pH 7.2, 150 mM KCl, 0.01% Tween20, 25 C; settings: label: 3'-biotin
[2] = target: T1, TDP-43 construct (RRM1-2); assay: as above
Method: (§1) The binding assays were performed in 10 mM potassium phosphate buffer (pH 7.2) with 150 mM KCl and 0.01% Tween20. Streptavidin-coated biosensors were loaded with 1 μg/ml RNA aptamer modified with biotin on the 3′end and exposed to increasing protein concentrations varying from 20 nM to 20 μM, according to the strength of the binding. Kd values were estimated by fitting the response intensity (shift in the wavelength upon binding) as a function of the protein concentration, at the steady state. The assay was repeated at least 3 times, each time in triplicate. The reported binding curves are examples of the output of one experiment.
The inventors verified whether Apt-14 preserves the ability to bind tightly to TDP-43. Bio-layer interferometry was used to determine the dissociation constant of the interaction between Apt-14 and the TDP-43 construct. This experiment was carried out with the same buffer and the same conditions employed for the experiment carried out with Apt-1.

[3] = target: T1, TDP-43 construct (RRM1-2); assay: BLI
[4] = target: T1, TDP-43 construct (RRM1-2); assay: BLI; 10 mM K phosphate pH 7.2, 150 mM KCl, 0.01% Tween20, 25 C; about 90 nM in Example 7; settings: label: 3'-biotin (BLI)
Method: In this study, the inventors calculated the predicted interaction propensities between the RNA aptamers of Table 1 and TDP-43 and validated the predicted interaction propensities by comparing them with the experimentally measured Kd (dissociation constant) values. To this end, the Kd between each of Apt-1, Apt-2, Apt-3, Apt-11, Apt-12 or Apt-13 and the two RNA recognition motifs of TDP-43 (RRM1-2) was determined by means of biolayer interferometry, a label-free technology to study biomolecular interactions. Importantly, RRM1-2 represents the minimal region necessary for RNA-binding with high affinity (Lukavsky et al., 2013) purifiable as a monomer under near-to-physiological conditions and in suitable quantities (Zacco et al., 2018).
as §1

T1 sequence (Q13148 104-262, one chain of several): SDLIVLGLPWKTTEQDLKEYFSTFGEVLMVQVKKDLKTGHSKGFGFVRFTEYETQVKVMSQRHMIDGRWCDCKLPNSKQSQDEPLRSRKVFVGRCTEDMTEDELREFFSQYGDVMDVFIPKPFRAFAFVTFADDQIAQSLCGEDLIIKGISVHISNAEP

| Binder | Kd [1] [nM] | also measured |
| --- | --- | --- |
| B1 | 1500 | – |
| B2 | – | Kd [2]: ~76 nM |
| B3 | 650 | – |
| B4 | – | Kd [3]: ~750 nM |
| B5 | 1600 | – |
| B6 | 750 | – |
| B7 | 1300 | – |
| B8 | – | Kd [4]: 100 nM |
